Measurements as given in publication PMC6468306 (Nucleic Acids Research, 2019).
Read-outs that look alike come from different tables or passages of the source.

How the values were obtained:
ubiquitin (Ub) [1] = molecular target: T1, ubiquitin (Ub) (mouse, UniProt P0CG49 1-76); experiment: pull-down
M1-linked diUb (M1-Ub2) = M1-linked diUb (M1-Ub2) (human, UniProt P0CG47); experiment: pull-down
ubiquitin (Ub) [2] = molecular target: T1, ubiquitin (Ub); experiment: SPR
ubiquitin (Ub) [3] = molecular target: T1, ubiquitin (Ub); experiment: SPR; remark: listed apart in the source
[4] = molecular target: K48-Ub2 synthesized from K48R Ub and D77 Ub (for crystallization) (mouse, UniProt P0CG49, K48R | D77); experiment: crystal structure

binding result (ubiquitin (Ub) [1]) | Kd (ubiquitin (Ub) [2]) | Binder | other results
binds |  | GST-fused CSB C-terminal region (residues 1386-1493) (domain or fragment) SSSLLAKMRARNHLILPERLESESGHLQEASALLPTTEHDDLLVEMRNFIAFQAHTDGQASTREILQEFESKLSASQSCVFRELLRNLCTFHRTSGGEGIWKLKPEYC | 
 | 35.6 µM | GST-fused CSB WHD (residues 1401-1493), wild type (domain or fragment) LPERLESESGHLQEASALLPTTEHDDLLVEMRNFIAFQAHTDGQASTREILQEFESKLSASQSCVFRELLRNLCTFHRTSGGEGIWKLKPEYC | binding result (M1-linked diUb (M1-Ub2)): binds; Kd (ubiquitin (Ub) [3]): 36.1 µM
 | 51.5 µM | GST-fused CSB WHD, Q1413R variant allele (domain or fragment) LPERLESESGHLREASALLPTTEHDDLLVEMRNFIAFQAHTDGQASTREILQEFESKLSASQSCVFRELLRNLCTFHRTSGGEGIWKLKPEYC | 
 |  | CSB WHD (residues 1401-1493) with the Q1413R variant allele, GST cleaved (domain or fragment) LPERLESESGHLREASALLPTTEHDDLLVEMRNFIAFQAHTDGQASTREILQEFESKLSASQSCVFRELLRNLCTFHRTSGGEGIWKLKPEYC | binding result [4]: binds
binds |  | GST-fused CSB C-terminal region (residues 1412-1493) (domain or fragment) LQEASALLPTTEHDDLLVEMRNFIAFQAHTDGQASTREILQEFESKLSASQSCVFRELLRNLCTFHRTSGGEGIWKLKPEYC | 
